# Measurements as given in IntAct's records for PubMed 35107372.
# B1: Nucleolar RNA helicase 2 (Homo sapiens), Q9NR30 (parent)
# chain: MPGKLRSDAGLESDTAMKKGETLRKQTEEKEKKEKPKSDKTEEIAEEEETVFPKAKQVKKKAEPSEVDMNSPKSKKAKKKEEPSQNDISPKTKSLRKKKEPIEKKVVSSKTKKVTKNEEPSEEEIDAPKPKKMKKEKEMNGETREKSPKLKNGFPHPEPDCNPSEAASEESNSEIEQEIPVEQKEGAFSNFPISEETIKLLKGRGVTFLFPIQAKTFHHVYSGKDLIAQARTGTGKTFSFAIPLIEKLHGELQDRKRGRAPQVLVLAPTRELANQVSKDFSDITKKLSVACFYGGTPYGGQFERMRNGIDILVGTPGRIKDHIQNGKLDLTKLKHVVLDEVDQMLDMGFADQVEEILSVAYKKDSEDNPQTLLFSATCPHWVFNVAKKYMKSTYEQVDLIGKKTQKTAITVEHLAIKCHWTQRAAVIGDVIRVYSGHQGRTIIFCETKKEAQELSQNSAIKQDAQSLHGDIPQKQREITLKGFRNGSFGVLVATNVAARGLDIPEVDLVIQSSPPKDVESYIHRSGRTGRAGRTGVCICFYQHKEEYQLVQVEQKAGIKFKRIGVPSATEIIKASSKDAIRLLDSVPPTAISHFKQSAEKLIEEKGAVEALAAALAHISGATSVDQRSLINSNVGFVTMILQCSIEMPNISYAWKELKEQLGEEIDSKVKGMVFLKGKLGVCFDVPTASVTEIQEKWHDSRRWQLSVATEQPELEGPREGYGGFRGQREGSRGFRGQRDGNRRFRGQREGSRGPRGQRSGGGNKSNRSQNKGQKRSFSKAFGQ
# Variants of: B1
# Details: with ncap_sars2 N
row,Variant,effect of a mutation on the interaction
1,D339H;E340G,with no effect
2,S375L;A376E,with no effect
